According to US20120045393A1 (priority 2009, published 2012):
Entries after “also recorded” stand apart in the source; their conditions may differ. Like-named read-outs stand apart in the source and are kept apart here. Non-standard residues stand in square brackets, D forms with d. *: point of attachment. Bpa = N[C@@H](Cc1ccc(C(=O)c2ccccc2)cc1)C(=O)O; d2Nal = N[C@H](Cc1ccc2ccccc2c1)C(=O)O; pGlu = O=C1CC[C@@H](C(=O)O)N1; DO3A10CM = not defined here; Bpa4 = non-natural residue; Amfe4 = not defined here; Hpgly = not defined here; Mogly = not defined here; Tha = not defined here; azaGly = NNC(=O)O; Sar = CNCC(=O)O; 125I = [125I]*

Columns and labels:
[1] = tested on: LHRH-II-receptor-positive but LHRH-1-receptor-negative ovarian SK-OV-3 cell lines; details: cited from earlier work
liver homogenate = details: female Tac:NCr:Foxn1^nu/nu mice, 37° C., up to 60 min
kidney homogenate = details: female Tac:NCr:Foxn1^nu/nu mice, 37° C., up to 60 min
[2] = kidney homogenate stock solution; details: female Tac:NCr:Foxn1^nu/nu mice, 37° C., up to 60 min
[3] = plasma (blood) and urine samples collected post injection in normal mice; details: up to 60 min post injection
[4] = target: LHRH receptor (LHRH binding sites) on EFO-27 human ovarian cancer cells (human); experiment: saturation binding to EFO-27 cells, single-site fit
[5] = target: LHRH receptor (LHRH binding sites) on EFO-27 human ovarian cancer cells (human); experiment: internalization/efflux study, cell-associated radioactivity, EFO-27 cells
[6] = target: LHRH receptor (LHRH binding sites) on EFO-27 human ovarian cancer cells (human); experiment: direct binding of 177Lu-labeled peptide to EFO-27 cells, single concentration
[7] = target: LHRH receptor (LHRH binding sites) on EFO-27 human ovarian cancer cells (human); experiment: internalization/efflux study, cell-associated radioactivity, EFO-27 cells, 205 fmoles added/well
[8] = target: T1, LHRH binding sites on EFO-27 human ovarian cancer cells (human); experiment: competition with [125I-Tyr8]BRU-2477 on EFO-27 cells
T1 chain: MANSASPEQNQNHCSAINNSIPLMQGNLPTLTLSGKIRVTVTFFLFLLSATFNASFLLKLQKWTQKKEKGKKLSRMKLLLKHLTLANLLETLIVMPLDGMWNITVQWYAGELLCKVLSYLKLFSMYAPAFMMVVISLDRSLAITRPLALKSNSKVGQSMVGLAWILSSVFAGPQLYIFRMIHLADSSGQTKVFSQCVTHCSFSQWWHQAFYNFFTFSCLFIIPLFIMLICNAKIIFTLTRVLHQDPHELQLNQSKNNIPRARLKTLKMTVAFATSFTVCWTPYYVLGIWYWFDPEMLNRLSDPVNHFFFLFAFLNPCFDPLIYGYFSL

[9] = target: T1, LHRH binding sites (presumed LHRH …); experiment: as above
[10] = target: LHRH receptor (LHRH binding sites) on EFO-27 human ovarian cancer cells (human); experiment: internalization/efflux study, cell-associated radioactivity, EFO-27 cells, 292 fmoles added/well
[11] = target: LHRH receptor (LHRH binding sites) on EFO-27 human ovarian cancer cells (human); experiment: competition with [125I-Tyr8]BRU-2477, EFO-27 cells
[12] = target: LHRH binding sites on EFO-27 human ovarian cancer cells (human); experiment: competition with [125I-Tyr8]BRU-2477 on EFO-27 cells; remark: listed apart in the source
[13] = target: LHRH binding sites on EFO-27 human ovarian cancer cells (human); experiment: as above; remark: listed apart in the source
[14] = target: LHRH receptor (LHRH binding sites) on EFO-27 human ovarian cancer cells (human); experiment: competition with [125I-Tyr8]BRU-2477 for binding to EFO-27 cells
[15] = target: LHRH receptor (LHRH binding sites) on PC-3 human prostate cancer cells (human); experiment: internalization/efflux study, cell-associated radioactivity, PC-3 cells
[16] = target: LHRH receptor (LHRH binding sites) on PC-3 human prostate cancer cells (human); experiment: internalization/efflux study, cell-associated radioactivity, PC-3 cells, 230 fmoles added/well
[17] = target: LHRH receptor (LHRH binding sites) on EFO-27 human ovarian cancer cells (human); experiment: internalization/efflux study, cell-associated radioactivity, EFO-27 cells, 212 fmoles added/well
[18] = target: T1, LHRH binding sites (presumed LHRH …); experiment: competition with [125I-Tyr8]BRU-2477 on EFO-27 cells
[19] = target: LHRH receptor (LHRH binding sites) on EFO-27 human ovarian cancer cells (human); experiment: internalization/efflux study, cell-associated radioactivity, EFO-27 cells, 156 fmoles added/well
[20] = target: LHRH receptor (LHRH binding sites) on EFO-27 human ovarian cancer cells (human); experiment: competition with [125I-Tyr8]BRU-2477 for binding to EFO-27 cells; remark: listed apart in the source
[21] = target: LHRH receptor (LHRH binding sites) on EFO-27 human ovarian cancer cells (human); experiment: as above; remark: listed apart in the source
[22] = target: T1, LHRH binding sites (presumed LHRH …); experiment: competition with [125I-Tyr8]BRU-2477 on EFO-27 cells
[23] = target: T1, LHRH binding sites (presumed LHRH …); experiment: as above
[24] = target: LHRH receptor (LHRH binding sites) on EFO-27 human ovarian cancer cells (human); experiment: internalization/efflux study, cell-associated radioactivity, EFO-27 cells, 200 fmoles added/well
[25] = target: T1, LHRH binding sites (presumed LHRH …); experiment: competition with [125I-Tyr8]BRU-2477 on EFO-27 cells
[26] = target: LHRH receptor (LHRH binding sites) on EFO-27 human ovarian cancer cells (human); experiment: internalization/efflux study, cell-associated radioactivity, EFO-27 cells, 78 fmoles added/well
[27] = target: LHRH receptor (LHRH binding sites) on EFO-27 human ovarian cancer cells (human); experiment: internalization/efflux study, cell-associated radioactivity, EFO-27 cells, 203 fmoles added/well
[28] = target: T1, LHRH binding sites (presumed LHRH …); experiment: competition with [125I-Tyr8]BRU-2477 on EFO-27 cells

## LHRH-II: native Chicken II LHRH: pGlu-His-Trp-Ser-His-Gly-Trp-Tyr-Pro-Gly-NH2 (EHWSHGWYPG; HELM PEPTIDE1{[Glp].H.W.S.H.G.W.Y.P.G.[am]}$$$$V2.0; SMILES NC(=O)CNC(=O)[C@@H]1CCCN1C(=O)[C@H](Cc1ccc(O)cc1)NC(=O)[C@H](Cc1c[nH]c2ccccc12)NC(=O)CNC(=O)[C@H](Cc1c[nH]cn1)NC(=O)[C@H](CO)NC(=O)[C@H](Cc1c[nH]c2ccccc12)NC(=O)[C@H](Cc1c[nH]cn1)NC(=O)[C@@H]1CCC(=O)N1)
[1]
  antiproliferative effect: showed antiproliferative effect

## Lu-DOTA-Dnal2-Arg-Trp-Ser-His-Darg-Trp-Bpa4-Pro-azaGly-NH2
Liver homogenate
  cleaved bond: Bpa48-Pro9, major
Kidney homogenate
  cleaved bond: Bpa48-Pro9, major
[2]
  cleaved bond: Bpa48-Pro9, major; also recorded: Trp7-Bpa48, major
[3]
  cleaved bond: Bpa48-Pro9, major
  fragment found: BRU-3046; BRU-2813[1-7]-OH

B1: ^177Lu-BRU-2666 (peptide)
peptide: XHWSHXWXPX
modifications: 177Lu held by the N-terminal DO3A10CM: 177Lu-DO3A10CM-Dnal2-His-Trp-Ser-His-Darg-Trp-Bpa4-Pro-azaGly-NH2
[4]
  Kd: 920 nM
  Max. binding (Bmax) (pmoles/10^6 cells): 183
  Receptors/cell (receptors/cell): 1.1e+08
[5]
  Bound %: 12.2%
[6]
  % Bound: 13.2%
[7]
  Bound fmoles: 25 fmol

## DO3A10CM-[d2Nal]RESH[dR]W[Bpa]P[azaGly]-NH2 (reading uncertain, AA3 Glu) [BRU-3110]
[8]
  fold lower binding potency than BRU-2813: ~8 fold
[9]
  EC50: 2600 nM

B2: ^177Lu-BRU-2968 (peptide)
peptide: XRWSHXWXP
modifications: 177Lu held by the N-terminal DO3A10CM: 177Lu-DO3A10CM-Dnal2-Arg-Trp-Ser-His-Darg-Trp-Bpa4-Pro-Da15o3pt
[5]
  Bound %: 23.6%
[6]
  % Bound: 23.5%
[10]
  Bound fmoles: 68.8 fmol

## XHWSHXWXPX (as printed: DO3A10CM-Dnal2-His-Trp-Ser-His-Darg-Trp-Bpa4-Pro-azaGly-NH2) [BRU-2666]
[11]
  EC50: 470 nM
[12]
  EC50: 470 nM
[13]
  EC50: 2600 nM
  times more potent than the Sar1 analog (BRU-2443): 2 times
[14]
  EC50: 390 nM

B3: ^177Lu-BRU-2813 (peptide)
peptide: XRWSHXWXPX
modifications: 177Lu held by the N-terminal DO3A10CM: 177Lu-DO3A10CM-Dnal2-Arg-Trp-Ser-His-Darg-Trp-Bpa4-Pro-azaGly-NH2
[15]
  Bound %: 19.3%
[5]
  Bound %: 19.1%
[6]
  % Bound: 18.8%
[16]
  Bound fmoles: 44.3 fmol
[17]
  Bound fmoles: 40.5 fmol

## DO3A10CM-[Sar]HWSH[dR]WP[azaGly]-NH2 (not fully specified; reading uncertain) [BRU-2767]
[18]
  EC50: 10000 nM

## [pGlu]HWSH[dR]WY(125I)P[azaGly]-NH2 [[Darg^6, ^125I-Tyr^8, azaGly^10]-LHRH-II]
[4]
  Kd: 1290 nM
  Max. binding (Bmax) (pmoles/10^6 cells): 141
  Receptors/cell (receptors/cell): 8.5e+07
[5]
  Bound %: 1.2%
[19]
  Bound fmoles: 1.87 fmol

## XRWSHXWXPX (as printed: DO3A10CM-Dnal2-Arg-Trp-Ser-His-Darg-Trp-Bpa4-Pro-azaGly-NH2) [BRU-2813]
[11]
  EC50: 330 nM
[12]
  EC50: 330 nM
[13]
  percent more potency than BRU-2666: 30%
[20]
  EC50: 330 nM
[21]
  EC50: 420 nM
[14]
  EC50: 300 nM

## DO3A10CM-[d2Nal]RLSH[dR]W[Bpa]P[azaGly]-NH2 (reading uncertain, AA3 Leu) [BRU-3108]
[9]
  EC50: 560 nM

## DO3A10CM-[d2Nal]RWSH[dR]W[Bpa4]-OH (reading uncertain) [BRU-3064]
[22]
  EC50: 670 nM

## DO3A10CM-[Sar]HWS[Tha][dR]W[Bpa]P[azaGly]-NH2 (reading uncertain) [BRU-2769]
[8]
  fold lower binding potency than BRU-2443: ~8 fold
[23]
  EC50: 7340 nM

B4: ^177Lu-BRU-2757 (peptide)
peptide: XHWSHXWXPX
modifications: 177Lu held by the N-terminal DO3A10CM: 177Lu-DO3A10CM-Damfe4-His-Trp-Ser-His-Darg-Trp-Bpa4-Pro-azaGly-NH2
[5]
  Bound %: 9.5%
[6]
  % Bound: 11.1%
[24]
  Bound fmoles: 19 fmol

## XRFSHXWXPX (DO3A10CM on N-terminus; AA1 Dnal2; AA6 Darg; AA8 Bpa4; AA10 azaGly-NH2, AA3 Phe) [BRU-3106]
[9]
  EC50: 430 nM

B5: BRU-3046 (peptide)
peptide: XRWSHXW
modifications: DO3A10CM on N-terminus; AA1 Dnal2; AA6 Darg; AA8-AA10 absent; C-terminal free acid
[25]
  EC50: 15900 nM
[22]
  EC50: 15900 nM

B6: ^177Lu-BRU-2796 (peptide)
peptide: DO3A10CM-G[Mogly]HWSH[dR]W[Bpa]P[azaGly]-NH2
modifications: reading uncertain; also: 177Lu complexed by DO3A10CM, printed as 177Lu-DO3A10CM-Gly-Mogly-His-Trp-Ser-His-Darg-Trp-Bpa4-Pro-azaGly-NH2
[5]
  Bound %: 1.2%
[26]
  Bound fmoles: 0.93 fmol

B7: ^177Lu-BRU-2756 (peptide)
peptide: DO3A10CM-[Sar][Amfe4]WSH[dR]W[Bpa]P[azaGly]-NH2
modifications: reading uncertain; also: 177Lu complexed by DO3A10CM, printed as 177Lu-DO3A10CM-Sar-Amfe4-Trp-Ser-His-Darg-Trp-Bpa4-Pro-azaGly-NH2
[5]
  Bound %: 5.1%
[6]
  % Bound: 5.17%
[24]
  Bound fmoles: 10.2 fmol

B8: ^177Lu-BRU-2797 (peptide)
peptide: DO3A10CM-G[Hpgly]HWSH[dR]W[Bpa]P[azaGly]-NH2
modifications: reading uncertain; also: 177Lu complexed by DO3A10CM, printed as 177Lu-DO3A10CM-Gly-Hpgly-His-Trp-Ser-His-Darg-Trp-Bpa4-Pro-azaGly-NH2
[5]
  Bound %: 2.02%
[6]
  % Bound: 4.64%
[27]
  Bound fmoles: 4.1 fmol

## XRRSHXWXPX (DO3A10CM on N-terminus; AA1 Dnal2; AA6 Darg; AA8 Bpa4; AA10 azaGly-NH2, AA3 Arg) [BRU-3111]
[9]
  EC50: 250 nM

## DO3A10CM-[Sar]HWSH[dR]WWP[azaGly]-NH2 (reading uncertain, AA8 Trp) [BRU-2724]
[18]
  EC50: 2670 nM
[28]
  EC50: 2670 nM
